Data as given in patent US20120244080A1 (GEORGIA STATE UNIVERSITY RESEARCH FOUNDATION, published 2012).
Each block holds one binder with its values, some of them ahead of it.

What was measured:
[1] = target: T1, GLP-1 receptor (GLP-1R) on rat insulinoma RINm5F cells (rat (RINm5F rat insulinoma cells), UniProt P32301 22-463); test: immunofluorescence staining of RINm5F cells (GLP-1R expressing) after 30 min at 37 °C, detected with rabbit polyclonal anti-calbindin D9k
T1 construct: whole, on cells; also called GLP-R
T1 sequence (looked up): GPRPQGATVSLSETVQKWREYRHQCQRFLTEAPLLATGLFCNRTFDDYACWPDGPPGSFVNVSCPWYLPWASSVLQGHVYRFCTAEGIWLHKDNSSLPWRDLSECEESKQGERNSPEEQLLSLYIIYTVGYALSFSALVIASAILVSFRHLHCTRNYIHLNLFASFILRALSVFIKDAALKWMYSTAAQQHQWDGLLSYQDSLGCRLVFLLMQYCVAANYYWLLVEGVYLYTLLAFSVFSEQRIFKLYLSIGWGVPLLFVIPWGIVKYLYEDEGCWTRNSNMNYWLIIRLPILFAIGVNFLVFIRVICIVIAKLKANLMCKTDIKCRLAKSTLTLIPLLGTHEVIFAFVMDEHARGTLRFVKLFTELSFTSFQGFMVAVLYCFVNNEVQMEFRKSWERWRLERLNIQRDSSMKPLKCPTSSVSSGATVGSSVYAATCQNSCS
Procedure: The cells were extensively washed after 30 min treatments under 37° C. in microscopic chamber slides and subsequently fixed. […] The light shading represents antibody staining.
It is well known that GLP-1R is expressed in RINm5F but not in CHO cells. […] Similar binding analyses were carried out with RINm5F cells and a […] (αTC1).

[2] = target: T1, GLP-1 receptor (GLP-1R) on rat …; test: cell-based or functional assay

binding result [1]: no binding (tested: 50 µM)
B1: Human Calbindin D9k (other)
chain: STKKSPEELKRIFEKYAAKEGDPDQLSKDELKLLIQAEFPSLLKGPNTLDDLFQELDKNGDGEVSFEEFQVLVKKISQ
notes: Negative control and parental host protein

intracellular cAMP level in rat insulinoma RINm5F cells (Lance cAMP 384 kit), IC50 [2]: ~20 nM
B2: Fusion Protein Cal.GLP (human Calbindin D9k-GLP-1 fusion protein) (designed binder)
chain: MSTKKSPEELKRIFEKYAAKEGDPDQLSKDELKLLIQAEFPSLLKGPNTLDDLFQELDKNGHAEGTFTSDVSSYLEGQAAKEFIAWLVKGRG
